# Reference: patent publication US20210230599, “STEM-LOOP COMPOSITIONS AND METHODS FOR INHIBITING INTERLEUKIN-8” (VITRISA THERAPEUTICS, INC., published 2021)
# B1: Aptamer 61 (ssRNA)
# RNA: CGGUGGGAAAAGUGAGAUGGGUUGCCG
# modifications: 2'-F G, 2'-OMe A/C/U, 5' C6NH2, 3' idT
# B2: Aptamer 214 (ssRNA)
# RNA: CAAUGGGAAAUGUGAGAUGGGUUGCCG
# modifications: 2'-F G, 2'-OMe A/C/U, 5' C6NH2, 3' idT
# B3: Aptamer 3 (ssRNA)
# RNA: UGAUGACGGUAGAUUACGGGUAGAGUGACCGCAUCU
# modifications: 2'-F G; 2'-OMe A,C,U; 5' C6NH2; 3' idT
# B4: Aptamer 147 (ssRNA)
# RNA: GGCGACGGUAGAUUAUGGGCAGUGUGACCGCGCC
# modifications: 2'-F G; 2'-OMe A,C,U; 5' C6NH2; 3' idT
# B5: Aptamer P01 (ssRNA)
# RNA: GAUGACGGUAGAUUACGGGUAGAGUGACCGCAUC
# modifications: 2'-F G; 2'-OMe A,C,U; 5' 40 kDa PEG via C6NH2; 3' idT
# Key:
# [1] = target: T1, Interleukin-8 (IL8, CXCL8), C-terminal His-tagged (Homo sapiens, UniProt P10145 SEQ:1-72); assay: competition; competition TR-FRET; U13A; settings: tags: C-terminal 6xHis (Sino Biological)
# Method: (§1) Activity of each of these variants were tested using a time resolved competition TR-FRET assay in which the labeled parent Aptamer 3 was competed with increasing concentrations of unlabeled variants for binding to IL8 (FIG. 14). Briefly, 2-fold dilutions of thermally equilibrated aptamers were made in TR-FRET Buffer (50 mM MOPS, pH 7.4, 125 mM NaCl, 5 mM KCl, 50 μM CHAPS, 0.1 mg/mL BSA, 1 mM CaCl₂, and 1 mM MgCl₂). 5 μL of aptamer or control solution was added to 5 μl mix of 10 nM C-terminal His-tagged-IL8, 60 nM ALEXA FLUOR® 647-labeled Aptamer, and 5 nM anti-His-Eu (Perkin Elmer) in a black wall low volume 384 well plate (Greiner). For control, 5 μl of 1000-fold excess of unlabeled parent aptamer or 5 μl TR-FRET buffer alone was added to the mix of ALEXA FLUOR® 647-labeled aptamer, His-IL8, and anti-His-Eu. The plate was covered with a plate seal and subsequently incubated in the dark for 1 hour at room temperature. The plate was read on a Biotek CYTATION™ 5 plate reader. […]
# (§2) To better understand the sequence requirements and confirm the stem structures of members of the Aptamer 8 family as determined from sequence covariation analysis from both the primary and secondary (degenerate) selections, a series of variants which included mutations and deletions to the predicted stems (Tables 45 and 46) were synthesized and screened. […]
# [2] = target: T1, Interleukin-8 (IL8, CXCL8), C-terminal …; assay: competition; competition TR-FRET; S1 disrupted; settings: tags: C-terminal 6xHis (Sino Biological)
# Method: as §1, §2
# [3] = target: T1, Interleukin-8 (IL8, CXCL8), C-terminal …; assay: inhibition; inhibition of IL8 binding to CXCR1 cells, 5 nM IL8, protein limited; neutrophil migration 3 nM (Table 35); settings: tags: C-terminal His (Sino Biological); stem-loop
# Method: (§3) CXCR1 overexpressing cells were used to confirm that aptamers could block IL8 binding to its cognate receptor, CXCR1, in a functional setting. Briefly, CXCR1-overexpressing cells were plated in a 96 well plate and seeded overnight. Serially diluted aptamers and 5 nM IL8 were mixed in cell culture media and applied to cells for 2 hours at 37° C. Media was aspirated, and cells were washed 3× with PBS for 5 minutes. Cells were lysed in Ultra HiBlock Buffer (Perkin Elmer) with gentle agitation. IL8 levels were determined using Ultra TR-FRET (Perkin Elmer).
# [4] = target: T1, Interleukin-8 (IL8, CXCL8), C-terminal …; assay: inhibition; inhibition of IL8 binding to CXCR1 cells, protein limited; neutrophil migration 2 nM; settings: tags: C-terminal His (Sino Biological); stem-loop
# Method: as §3
# [5] = target: T1, Interleukin-8 (IL8, CXCL8), C-terminal …; assay: competition; competition TR-FRET; affinity within error of unpegylated parent; parent given as Aptamer 38 and as Aptamer 3; settings: tags: C-terminal His (Sino Biological); stem-loop
# Method: as §1, with “To better understand the sequence requirements and to confirm the stem structures of members of the Aptamer 3 family as determined from sequence covariation analysis from both the primary and secondary (degenerate) selections, a series of variants which included mutations and deletions to the predicted stems were synthesized and screened (Table 24). Activity” for “Activity”
binder,measurement,setting,value
B1,binding result,[1],binds
B2,binding signal,[2],> 10 fold worse than Aptamer 8
B3,IC50,[3],3 nM
B4,IC50,[4],3 nM
B5,binding result,[5],binds
